Ends that are not written are not given here.
How the values were obtained:
[1] = target: T1, recombinant human β2-glycoprotein I (insect cells) (human, UniProt P02749 20-345); experiment: SPR (Biacore), tPA F immobilized on CM5 chip
T1 construct: also called recombinant β2GPI; rβ2GPI
T1 sequence (looked up): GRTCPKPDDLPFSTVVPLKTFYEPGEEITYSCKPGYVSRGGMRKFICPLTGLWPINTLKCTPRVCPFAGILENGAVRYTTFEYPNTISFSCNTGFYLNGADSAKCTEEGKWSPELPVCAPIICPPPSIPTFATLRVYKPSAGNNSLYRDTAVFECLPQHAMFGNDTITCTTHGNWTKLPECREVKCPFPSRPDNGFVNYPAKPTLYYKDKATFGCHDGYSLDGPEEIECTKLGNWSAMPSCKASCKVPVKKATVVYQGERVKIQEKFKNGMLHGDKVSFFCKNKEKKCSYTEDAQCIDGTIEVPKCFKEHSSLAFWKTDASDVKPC
Method: (§1) A standardized amine coupling procedure was used to couple proteins with F domains to a CM5 chip (Biacore AB, Uppsala, Sweden). First, the dextran surface of the chips was activated by a 35 μl injection with a 1:1 mixture of 0.1 M N-hydroxysuccinimide (NHS) and 0.4 M N-ethyl-N′-(dimethylaminopropyl)carbodiimide (EDC) at a flow rate of 5 μl min.⁻¹. Then, the proteins were covalently coupled to the activated dextran surface. Remaining activated groups in each of the four flow channels were blocked by injection of 35 μl of 1 M ethanolamine hydrochloride pH 8.5. EDC, NHS and ethanolamine hydrochloride were obtained from Biacore. […] The flow rate was 10 μl min.⁻¹, the injection time was 120″. The running buffer during immobilization was 10 mM HEPES pH 7.4, 140 mM NaCl. Buffers were filtrated on a 0.22 μm filter (white GSWP, 47 mm, Millipore) and degassed at room temperature. For subsequent binding experiments, the running buffer was 10 mM HEPES pH 7.4, 140 mM NaCl, 1.5 mM CaCl₂, 10 mM εACA, 0.005% Tween-20. […] After each injection of protein, the chip was regenerated with 0.1 M H₃PO₄ pH 1.0.

abciximab (ReoPro) [2] = experiment: ELISA, therapeutic coated on Nunc Immobilizer plate, concentration series of tPA, one-site binding fit
Sequence of abciximab (ReoPro) (VH, as listed by the source, chain 1 of 2): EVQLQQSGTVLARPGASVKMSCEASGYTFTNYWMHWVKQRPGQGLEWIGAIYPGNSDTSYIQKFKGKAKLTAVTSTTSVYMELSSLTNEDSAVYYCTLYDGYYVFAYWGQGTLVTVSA
Sequence of abciximab (ReoPro) (VL, as listed by the source, chain 2 of 2): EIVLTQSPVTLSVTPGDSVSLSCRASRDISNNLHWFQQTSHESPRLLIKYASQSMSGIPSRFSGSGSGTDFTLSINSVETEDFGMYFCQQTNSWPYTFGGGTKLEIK
Method: (§2) Plates were washed twice with Tris buffered saline pH 7.2 containing 0.1% Tween20 (TBST) and blocked with PBS containing 1% Tween20 for 1 hour at room temperature. […] Plates were washed five times with TBST and incubated with peroxidase labeled anti-mouse immunoglobulins (RAMPO; DAKOCytomation, Glostrup, Denmark) diluted 1:3000 in PBST for 30 minutes at room temperature. Plates were washed five times with PBS 0.1% Tween20, and stained with 100 μL/well of tetramethyl-benzidine (TMB) substrate (Biosource Europe, Nivelles, Belgium). The reaction was terminated with 50 μL/well of 2 M H₂SO₄ and substrate conversion was read at 450 nm on a Spectramax340 microplate reader. Curves were fitted with a one-site binding model (GraphPad Prism version 4.02 for Windows, Graphpad Software, Calif., USA) from which Kd and Bmax were determined.

[3] = target: T2, recombinant human Zn2+-chelated insulin (Monotard) (human, UniProt P01308 90-110; P01308 25-54); experiment: as above
T2 construct: also called zinc-insulin; zinc-chelated insulin
T2 sequence (P01308 90-110 limits assumed, chain 1 of 2): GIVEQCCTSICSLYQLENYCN
T2 sequence (P01308 25-54 limits assumed, chain 2 of 2): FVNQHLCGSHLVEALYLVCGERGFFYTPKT
Method: as §2

[4] = target: T3, rapid acting human insulin analogue (NovoRapid Flexpen) (human, UniProt P01308 90-110; P01308 25-54); experiment: as above
T3 construct: also called Insulin Aspart
T3 sequence (P01308 other isoform, or with tags, fused parts or gaps limits assumed, chain 2 of 2): as the sequence (P01308 25-54 limits assumed, chain 2 of 2) above, with P28D counted along it
Method: as §2

[5] = target: T4, human coagulation factor VIII (FVIII) (Aafact) (human, UniProt P00451 20-2351); experiment: as above
T4 chain 1: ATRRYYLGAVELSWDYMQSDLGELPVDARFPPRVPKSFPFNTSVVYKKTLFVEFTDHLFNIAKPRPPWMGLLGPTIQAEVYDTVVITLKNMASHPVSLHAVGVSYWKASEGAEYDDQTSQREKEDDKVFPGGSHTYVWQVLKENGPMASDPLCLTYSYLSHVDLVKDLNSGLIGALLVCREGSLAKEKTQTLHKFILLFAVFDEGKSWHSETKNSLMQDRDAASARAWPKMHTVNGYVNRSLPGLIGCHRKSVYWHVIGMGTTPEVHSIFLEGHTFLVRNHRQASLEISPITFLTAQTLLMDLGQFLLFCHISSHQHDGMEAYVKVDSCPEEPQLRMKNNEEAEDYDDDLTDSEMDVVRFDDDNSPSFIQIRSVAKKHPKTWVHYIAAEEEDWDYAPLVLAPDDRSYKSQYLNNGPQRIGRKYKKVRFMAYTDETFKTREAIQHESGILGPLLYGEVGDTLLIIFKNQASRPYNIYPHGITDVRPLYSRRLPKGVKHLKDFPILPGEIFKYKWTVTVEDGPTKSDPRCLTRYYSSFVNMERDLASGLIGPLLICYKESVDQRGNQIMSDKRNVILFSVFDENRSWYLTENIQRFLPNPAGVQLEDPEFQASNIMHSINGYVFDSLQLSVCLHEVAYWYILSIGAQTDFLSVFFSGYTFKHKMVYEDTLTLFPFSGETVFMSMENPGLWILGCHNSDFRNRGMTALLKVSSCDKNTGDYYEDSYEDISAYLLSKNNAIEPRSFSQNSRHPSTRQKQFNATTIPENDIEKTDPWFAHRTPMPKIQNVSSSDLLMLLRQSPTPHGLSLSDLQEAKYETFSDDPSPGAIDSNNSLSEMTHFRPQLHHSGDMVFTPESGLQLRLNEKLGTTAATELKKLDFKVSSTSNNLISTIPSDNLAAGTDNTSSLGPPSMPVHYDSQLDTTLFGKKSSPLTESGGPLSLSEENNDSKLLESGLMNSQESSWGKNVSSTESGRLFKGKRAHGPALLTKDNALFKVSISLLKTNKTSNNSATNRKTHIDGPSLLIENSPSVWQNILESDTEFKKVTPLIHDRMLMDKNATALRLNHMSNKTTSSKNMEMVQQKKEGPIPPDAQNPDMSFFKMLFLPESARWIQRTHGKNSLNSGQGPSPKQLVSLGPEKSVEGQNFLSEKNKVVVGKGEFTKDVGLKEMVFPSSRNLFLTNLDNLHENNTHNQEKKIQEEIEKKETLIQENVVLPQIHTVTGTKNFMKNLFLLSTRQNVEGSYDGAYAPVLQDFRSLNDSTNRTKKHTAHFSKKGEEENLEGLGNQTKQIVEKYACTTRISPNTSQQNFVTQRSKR
T4 chain 2: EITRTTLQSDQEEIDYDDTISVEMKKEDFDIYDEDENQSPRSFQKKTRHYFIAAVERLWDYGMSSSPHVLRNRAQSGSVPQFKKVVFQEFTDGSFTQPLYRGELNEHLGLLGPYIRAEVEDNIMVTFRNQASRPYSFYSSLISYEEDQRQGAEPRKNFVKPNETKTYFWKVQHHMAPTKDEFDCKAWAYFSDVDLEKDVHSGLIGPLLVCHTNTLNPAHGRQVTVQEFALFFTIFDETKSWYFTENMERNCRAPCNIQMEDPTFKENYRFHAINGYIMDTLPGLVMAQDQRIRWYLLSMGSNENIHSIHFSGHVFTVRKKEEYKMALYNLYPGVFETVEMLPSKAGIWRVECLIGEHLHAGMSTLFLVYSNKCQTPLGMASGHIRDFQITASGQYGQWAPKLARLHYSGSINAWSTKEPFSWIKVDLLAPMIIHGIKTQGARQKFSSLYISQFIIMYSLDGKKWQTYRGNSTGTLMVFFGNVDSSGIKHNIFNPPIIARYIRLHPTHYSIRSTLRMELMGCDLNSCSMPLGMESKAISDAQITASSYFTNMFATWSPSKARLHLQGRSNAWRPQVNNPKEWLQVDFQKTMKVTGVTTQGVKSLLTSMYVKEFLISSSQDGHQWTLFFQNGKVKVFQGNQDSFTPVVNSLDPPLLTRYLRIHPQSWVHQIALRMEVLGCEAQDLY
Method: as §2

[6] = target: T5, human albumin (Cealb, Sanquin-CLB) (human, UniProt P02768 25-609); experiment: as above
T5 construct: also called CeaIb
Method: as §2

[7] = target: Etanercept (Enbrel), native; experiment: cell-based or functional assay
abciximab (ReoPro) [8] = experiment: cell-based or functional assay
[9] = target: T2, recombinant human Zn2+-chelated insulin …; experiment: cell-based or functional assay
[10] = target: T3, rapid acting human insulin analogue …; experiment: cell-based or functional assay
[11] = target: Infliximab (Remicade), human-murine chimeric monoclonal antibody; experiment: cell-based or functional assay
[12] = target: T1, recombinant human β2-glycoprotein I …; experiment: SPR (Biacore), HGFA F immobilized on CM5 chip
Method: as §1

B1: chemically synthesized tPA F domain (other, human)
chain: SYQVICRDEKTQMIYQQHQSWLRPVLRSNRVEYCWCNSGRAQCHSVPVKSK
modifications: ends and bridges not checked; also: C-terminal Lys acetylated or biotinylated, not given here which
notes: domain: F domain; Made by native chemical ligation; immobilized on the second Biacore chip
binding result [1]: no binding (tested: 0-300 nM)

B2: tissue-type plasminogen activator (tPA) (enzyme, human, UniProt P00750 36-562, looked up)
chain: SYQVICRDEKTQMIYQQHQSWLRPVLRSNRVEYCWCNSGRAQCHSVPVKSCSEPRCFNGGTCQQALYFSDFVCQCPEGFAGKCCEIDTRATCYEDQGISYRGTWSTAESGAECTNWNSSALAQKPYSGRRPDAIRLGLGNHNYCRNPDRDSKPWCYVFKAGKYSSEFCSTPACSEGNSDCYFGNGSAYRGTHSLTESGASCLPWNSMILIGKVYTAQNPSAQALGLGKHNYCRNPDGDAKPWCHVLKNRRLTWEYCDVPSCSTCGLRQYSQPQFRIKGGLFADIASHPWQAAIFAKHRRSPGERFLCGGILISSCWILSAAHCFQERFPPHHLTVILGRTYRVVPGEEEQKFEVEKYIVHKEFDDDTYDNDIALLQLKSDSSRCAQESSVVRTVCLPPADLQLPDWTECELSGYGKHEALSPFYSERLKEAHVRLYPSSRCTSQHLLNRTVTDNMLCAGDTRSGGPQANLHDACQGDSGGPLVCLNDGRMTLVGIISWGLGCGQKDVPGVYTKVTNYLDWIRDNMRP
notes: Full-length commercial tPA; also called Actilyse; Alteplase
Bmax (abciximab (ReoPro) [2]): 0.533 OD450 nm
Bmax [3]: 0.756 OD450 nm
Bmax [4]: 3.62 OD450 nm
Bmax [5]: 0.54 OD450 nm
Bmax [6]: 1.23 OD450 nm
tPA activation, Max. Activation (%) (tPA-dependent plasminogen activation, % of standardized positive control) [7]: 0%
tPA activation, Max. Activation (%) (tPA-dependent plasminogen activation, % of standardized positive control) (abciximab (ReoPro) [8]): 0%
tPA activation, Max. Activation (%) (tPA-dependent plasminogen activation, % of standardized positive control) [9]: 17.4%
tPA activation, Max. Activation (%) (tPA-dependent plasminogen activation, % of standardized positive control) [10]: 70.9%
tPA activation, Max. Activation (%) (tPA-dependent plasminogen activation, % of standardized positive control) [11]: 0%

B3: chemically synthesized HGFA F domain (other)
chain: EKCFDETRYEYLEGGDRWARVRQGHVEQCECFGGRTWCEGTK
modifications: carboxy-terminal acetylated lysine residue
notes: domain: F domain; Immobilized on the second Biacore chip
binding result [12]: no binding (tested: 0-300 nM)
